Experimental data taken from US20160031996A1 (CSL, published 2016).
Positions count from the first letter of the chain named.

Experiments:
Assay in all cases: Western blot, whole cell extracts of 293F cells
[1] = target: T1, human IL-3Rα R84A, full length (human, UniProt P26951 19-378)
T1 construct: expressed in 293F cells; Western blot of whole cell extracts; also called R84, cell surface alanine
T1 sequence: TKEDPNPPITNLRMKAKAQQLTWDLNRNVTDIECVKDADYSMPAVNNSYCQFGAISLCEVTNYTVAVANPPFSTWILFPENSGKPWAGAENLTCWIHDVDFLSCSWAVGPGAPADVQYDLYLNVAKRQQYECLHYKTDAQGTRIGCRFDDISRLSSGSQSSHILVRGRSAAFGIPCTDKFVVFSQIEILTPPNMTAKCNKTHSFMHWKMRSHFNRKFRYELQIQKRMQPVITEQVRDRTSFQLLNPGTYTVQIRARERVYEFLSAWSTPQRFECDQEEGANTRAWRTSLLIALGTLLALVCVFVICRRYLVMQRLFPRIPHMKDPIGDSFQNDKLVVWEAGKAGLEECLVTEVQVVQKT

[2] = target: T2, human IL-3Rα I94A, full length (human, UniProt P26951 19-378)
T2 construct: expressed in 293F cells; Western blot of whole cell extracts; also called I94, cell surface alanine
T2 sequence: T1 sequence with A66R, I76A

[3] = target: T3, human IL-3Rα P61A, full length (human, UniProt P26951 19-378)
T3 construct: expressed in 293F cells; Western blot of whole cell extracts; also called P61, cell surface alanine
T3 sequence: T1 sequence with P43A, A66R

[4] = target: T4, human IL-3Rα W93A, full length (human, UniProt P26951 19-378)
T4 construct: expressed in 293F cells; Western blot of whole cell extracts; also called W93, cell surface alanine
T4 sequence: T1 sequence with A66R, W75A

[5] = target: T5, human IL-3Rα Y58A, full length (human, UniProt P26951 19-378)
T5 construct: expressed in 293F cells; Western blot of whole cell extracts; also called Y58, cell surface alanine
T5 sequence: T1 sequence with Y40A, A66R

[6] = target: T6, human IL-3Rα E51A, full length (human, UniProt P26951 19-378)
T6 construct: expressed in 293F cells; Western blot of whole cell extracts; also called E51, cell surface alanine
T6 sequence: T1 sequence with E33A, A66R

binding result [1]: no binding | binding result [2]: no binding | binding result [3]: no binding | binding result [4]: no binding | binding result [5]: no binding | binding result [6]: no binding
B1: monoclonal antibody 7G3 (antibody, V domains shown)
VH: EVQLQQSGPELVKPGASVKMSCKASGYTFTDYYMKWVKQSHGKSLEWIGDIIPSNGATFYNQKFKGKATLTVDRSSSTAYMHLNSLTSEDSAVYYCTRSHLLRASWFAYWGQGTLVTVSA
VL: DFVMTQSPSSLTVTAGEKVTMSCKSSQSLLNSGNQKNYLTWYLQKPGQPPKLLIYWASTRESGVPDRFTGSGSGTDFTLTISSVQAEDLAVYYCQNDYSYPYTFGGGTKLEIKR
notes: mouse monoclonal antibody (hybridoma ATCC HB-12009)
